39 variants from the Human Domainome abundance scans (Beltran et al. 2025) can be followed below.

± gives the uncertainty stated by the source.

Sequences and labels used below:
B1: Pituitary-specific positive transcription factor 1, residues 130 to 198; numbered along this chain, P28069 (parent)
chain: RELEKFANEFKVRRIKLGYTQTNVGEALAAVHGSEFSQTTICRFENLQLSFKNACKLKAILSKWLEEAE

The variants in the series derive from B1. Kind of series: abundance fitness (aPCA) (normalised: wild type 0, dead -1); higher = more abundant; growth selection in yeast, the domain comes from the species named. As to conditions: Homo sapiens.
Turning to RELEKFANEFKVRRIKLGYTQTNVGEALAAVHGSEFSQTTICRFENPQLSFKNACKLKAILSKWLEEAE [L47P], the abundance fitness was -0.804 ± 0.25.
The figure for RELEKFANEFKVRRIKLGYTQTNVGEALAAVHGSEFSQTTICRFENAQLSFKNACKLKAILSKWLEEAE [L47A] is -0.204 ± 0.082; for RELEKFANEFKVRRIKLGYTQTNVGEALAAVHGSEFSQTTICRFENKQLSFKNACKLKAILSKWLEEAE [L47K] it is -0.064 ± 0.057.
To RELEKFANEFKVRRIKLGYTQTNVGEALAAVHGSEFSQTTICRFENGQLSFKNACKLKAILSKWLEEAE [L47G] belongs 0.292 ± 0.063.
As for RELEKFANEFKVRRIKLGYTQTNVGEALAAVHGSEFSQTTICRFENRQLSFKNACKLKAILSKWLEEAE [L47R], the abundance fitness is -0.065 ± 0.066.
To RELEKFANEFKVRRIKLGYTQTNVGEALAAVHGSEFSQTTICRFENIQLSFKNACKLKAILSKWLEEAE [L47I] belongs -0.866 ± 0.34; to RELEKFANEFKVRRIKLGYTQTNVGEALAAVHGSEFSQTTICRFENCQLSFKNACKLKAILSKWLEEAE [L47C], 0.155 ± 0.15.
Turning to RELEKFANEFKVRRIKLGYTQTNVGEALAAVHGSEFSQTTICRFENHQLSFKNACKLKAILSKWLEEAE [L47H], the abundance fitness came out at 0.164 ± 0.11.
As for RELEKFANEFKVRRIKLGYTQTNVGEALAAVHGSEFSQTTICRFWNLQLSFKNACKLKAILSKWLEEAE [E45W], the abundance fitness was -0.762 ± 0.12.
Consider RELEKFANEFKVRRIKLGYTQTNVGEALAAVHGSEFSQTTICRFMNLQLSFKNACKLKAILSKWLEEAE [E45M], for which the abundance fitness was -0.893 ± 0.31.
To RELEKFANEFKVRRIKLGYTQTNVGEALAAVHGSEFSQTTICRFVNLQLSFKNACKLKAILSKWLEEAE [E45V] belongs -0.809 ± 0.15.
The figure for RELEKFANEFKVRRIKLGYTQTNVGEALAAVHGSEFSQTTICRFLNLQLSFKNACKLKAILSKWLEEAE [E45L] is -0.883 ± 0.14.
As for RELEKFANEFKVRRIKLGYTQTNVGEALAAVHGSEFSQTTICRFTNLQLSFKNACKLKAILSKWLEEAE [E45T], the abundance fitness is -0.821 ± 0.13.
Regarding RELEKFANEFKVRRIKLGYTQTNVGEALAAVHGSEFSQTTICRFHNLQLSFKNACKLKAILSKWLEEAE [E45H], the abundance fitness was -1.17 ± 0.32.
To RELEKFANEFKVRRIKLGYTQTNVGEALAAVHGSEFSQTTICRFDNLQLSFKNACKLKAILSKWLEEAE [E45D] belongs -0.991 ± 0.31; to RELEKFANEFKVRRIKLGYTQTNVGEALAAVHGSEFSQTTICRFQNLQLSFKNACKLKAILSKWLEEAE [E45Q], -0.767 ± 0.23.
The figure for RELEKFANEFKVRRIKLGYTQTNVGEALAAVHGSEFSQTTICRFSNLQLSFKNACKLKAILSKWLEEAE [E45S] is -0.92 ± 0.1; for RELEKFANEFKVRRIKLGYTQTNVGEALAAVHGSEFSQTTICRFYNLQLSFKNACKLKAILSKWLEEAE [E45Y] it is -0.993 ± 0.31; for RELEKFANEFKVRRIKLGYTQTNVGEALAAVHGSEFSQTTICRFCNLQLSFKNACKLKAILSKWLEEAE [E45C] it is -0.763 ± 0.2.
As to RELEKFANEFKVRRIKLGYTQTNVGEALAAVHGSEFSQTTICRFFNLQLSFKNACKLKAILSKWLEEAE [E45F], the abundance fitness is -0.878 ± 0.17.
With RELEKFANEFKVRRIKLGYTQTNVGEALAAVHGSEFSQTTICRFGNLQLSFKNACKLKAILSKWLEEAE [E45G], the abundance fitness is -0.961 ± 0.17.
With RELEKFANEFKVRRIKLGYTQTNVGEALAAVHGSEFSQTTICRFRNLQLSFKNACKLKAILSKWLEEAE [E45R], the abundance fitness was -0.987 ± 0.18.
RELEKFANEFKVRRIKLGYTQTNVGEALAAVHGSEFSQTTICRFANLQLSFKNACKLKAILSKWLEEAE [E45A]: the abundance fitness is -0.415 ± 0.1.
Consider RELEKFANEFKVRRIKLGYTQTNVGEALAAVHGSEFSQTTICRFESLQLSFKNACKLKAILSKWLEEAE [N46S], for which the abundance fitness is -0.085 ± 0.089.
The figure for RELEKFANEFKVRRIKLGYTQTNVGEALAAVHGSEFSQTTICRFEVLQLSFKNACKLKAILSKWLEEAE [N46V] is -0.661 ± 0.31.
Take RELEKFANEFKVRRIKLGYTQTNVGEALAAVHGSEFSQTTICRFEDLQLSFKNACKLKAILSKWLEEAE [N46D]: the abundance fitness is -0.112 ± 0.098.
Regarding RELEKFANEFKVRRIKLGYTQTNVGEALAAVHGSEFSQTTICRFEHLQLSFKNACKLKAILSKWLEEAE [N46H], the abundance fitness is -0.545 ± 0.12.
In the case of RELEKFANEFKVRRIKLGYTQTNVGEALAAVHGSEFSQTTICRFERLQLSFKNACKLKAILSKWLEEAE [N46R], the abundance fitness was -0.313 ± 0.056.
The figure for RELEKFANEFKVRRIKLGYTQTNVGEALAAVHGSEFSQTTICRFELLQLSFKNACKLKAILSKWLEEAE [N46L] is -0.493 ± 0.089.
Regarding RELEKFANEFKVRRIKLGYTQTNVGEALAAVHGSEFSQTTICRFEFLQLSFKNACKLKAILSKWLEEAE [N46F], the abundance fitness is -0.798 ± 0.24.
Consider RELEKFANEFKVRRIKLGYTQTNVGEALAAVHGSEFSQTTICRFEPLQLSFKNACKLKAILSKWLEEAE [N46P], for which the abundance fitness is -0.89 ± 0.4.
On to RELEKFANEFKVRRIKLGYTQTNVGEALAAVHGSEFSQTTICRFEKLQLSFKNACKLKAILSKWLEEAE [N46K], for which the abundance fitness was -0.266 ± 0.11.
As to RELEKFANEFKVRRIKLGYTQTNVGEALAAVHGSEFSQTTICRFEALQLSFKNACKLKAILSKWLEEAE [N46A], the abundance fitness is -0.15 ± 0.1.
RELEKFANEFKVRRIKLGYTQTNVGEALAAVHGSEFSQTTICRFEGLQLSFKNACKLKAILSKWLEEAE [N46G]: the abundance fitness was -0.311 ± 0.094.
In the case of RELEKFANEFKVRRIKLGYTQTNVGEALAAVHGSEFSQTTICRFECLQLSFKNACKLKAILSKWLEEAE [N46C], the abundance fitness was -0.787 ± 0.42.
For the variant RELEKFANEFKVRRIKLGYTQTNVGEALAAVHGSEFSQTTICRFEWLQLSFKNACKLKAILSKWLEEAE [N46W], the abundance fitness is -0.851 ± 0.2.
With RELEKFANEFKVRRIKLGYTQTNVGEALAAVHGSEFSQTTICRFEYLQLSFKNACKLKAILSKWLEEAE [N46Y], the abundance fitness is -0.732 ± 0.35.
The figure for RELEKFANEFKVRRIKLGYTQTNVGEALAAVHGSEFSQTTICRFEMLQLSFKNACKLKAILSKWLEEAE [N46M] is -0.492 ± 0.12.
For RELEKFANEFKVRRIKLGYTQTNVGEALAAVHGSEFSQTTICRFETLQLSFKNACKLKAILSKWLEEAE [N46T], the abundance fitness is -0.579 ± 0.12.
